pEC50, pKd: −log10 of the molar value.
What was measured:
[1] = target: murine CAIX on CHO cells (CHO-mCAIX) (mouse) (UniProt Q8VHB5); experiment: flow cytometry on CHO-mCAIX cells
[2] = target: human CAIX on CHO cells (CHO-hCAIX) (human) (UniProt Q16790); experiment: flow cytometry on CHO-hCAIX cells
[3] = target: monkey CAIX on CHO cells (CHO-cyCAIX) (monkey); experiment: flow cytometry on CHO-cyCAIX cells
[4] = target: human CAIX antigen (purchased from AcroBiosystems) (human) (UniProt Q16790); experiment: BLI (ForteBio), method of Example 3

murine CAIX on CHO cells (CHO-mCAIX) (mouse), sequence (Q8VHB5 32-437): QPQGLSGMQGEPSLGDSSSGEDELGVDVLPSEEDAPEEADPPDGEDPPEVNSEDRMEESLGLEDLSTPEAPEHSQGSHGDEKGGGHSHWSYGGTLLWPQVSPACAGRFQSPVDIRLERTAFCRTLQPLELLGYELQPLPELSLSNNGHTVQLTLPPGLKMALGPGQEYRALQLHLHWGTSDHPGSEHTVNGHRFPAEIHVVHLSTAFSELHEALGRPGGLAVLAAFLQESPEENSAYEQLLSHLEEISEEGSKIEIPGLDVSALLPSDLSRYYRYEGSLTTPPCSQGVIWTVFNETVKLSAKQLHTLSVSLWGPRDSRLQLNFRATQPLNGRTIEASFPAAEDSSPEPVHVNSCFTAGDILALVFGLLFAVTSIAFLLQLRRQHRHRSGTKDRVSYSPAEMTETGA

pEC50 [1]: 7.45
pEC50 [2]: 7.78
pEC50 [3]: 7.55
pKd [4]: 9.00
koff [4]: 0.0001 s⁻¹
kon [4]: 98600 M⁻¹ s⁻¹
Substance: Gerentuximab (antibody)

Reference: US20230002503A1
